Measurements as given in patent US20150374794A1 (Novo Nordisk, published 2015).
Numbered stars: 1 amine (or outer) side, 2 acyl side, 3 side chain; on linkers, the order of the positions; unused ones are H or OH. Square brackets hold non-standard residues; d marks the D form. Side chains are listed from the residue outwards. Ends that are not written are not given here. * marks the point of attachment. C18 diacid = O=C(O)CCCCCCCCCCCCCCCCC(=O)*; γGlu = O=C(O)[C@H](CCC(=O)[*:2])N[*:1]; Ac4c = NC1(C(=O)O)CCC1; AEEA = NCCOCCOCC(=O)O; Aib = CC(C)(N)C(=O)O

Assays:
human glucagon receptor [1] = biological target: T1, human glucagon receptor (human, UniProt P47871 26-477); assay: displacement of 125I-glucagon, membranes with human glucagon receptor, SPA
T1 construct: whole, on cells; the potency assay used whole cells (clone pLJ6'-4-25); also called GlucR; hGCGR
T1 sequence (P47871 26-477): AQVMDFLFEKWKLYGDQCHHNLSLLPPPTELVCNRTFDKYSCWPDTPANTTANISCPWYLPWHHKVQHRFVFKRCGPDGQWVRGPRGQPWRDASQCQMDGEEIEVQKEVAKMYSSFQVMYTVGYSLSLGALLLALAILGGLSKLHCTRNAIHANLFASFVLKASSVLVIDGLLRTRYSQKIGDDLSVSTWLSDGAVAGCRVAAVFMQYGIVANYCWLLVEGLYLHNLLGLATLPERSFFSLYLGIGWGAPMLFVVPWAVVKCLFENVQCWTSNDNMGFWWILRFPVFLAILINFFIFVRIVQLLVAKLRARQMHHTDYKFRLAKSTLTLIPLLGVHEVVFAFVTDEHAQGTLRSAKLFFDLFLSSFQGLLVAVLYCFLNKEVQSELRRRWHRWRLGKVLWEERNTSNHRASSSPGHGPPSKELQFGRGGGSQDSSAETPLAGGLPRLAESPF
Description: (§1) The receptor binding of each compound to the human glucagon receptor was measured in a displacement binding assay. […] Each derivative was added in a series of concentrations to isolated membranes containing the human glucagon receptor and displacement of the labelled ligand is monitored. The receptor binding was reported as the concentration at which half of the labelled ligand is displaced from the receptor, the IC₅₀ value.

human GLP-1 receptor [2] = biological target: T2, human GLP-1 receptor (human, UniProt P43220 24-463); assay: displacement of 125I-GLP-1(7-36)NH2, membranes with human GLP-1R, SPA
T2 construct: whole, on cells; the potency assay used whole cells (clone FCW467-12A/KZ10-1)
Description: as §1, with “human GLP-1” for “human glucagon”, “ligand was” for “ligand is”

human glucagon receptor [3] = biological target: T1, human glucagon receptor; assay: cell-based or functional assay
human GLP-1 receptor [4] = biological target: T2, human GLP-1 receptor; assay: cell-based or functional assay

Row | Binder | IC50 (human glucagon receptor [1]) | IC50 (human GLP-1 receptor [2]) | EC50 GlucR, CRE luciferase reporter gene assay in BHK cells (human glucagon receptor [3]) | EC50 GLP-1R, CRE luciferase reporter gene assay in BHK cells (human GLP-1 receptor [4])
1 | H[Aib]QGTFTSDLSKYLESRRAREFVQWLLKT-NH2 (not fully specified (residue 28)) | 6700 pM | 400 pM | 62.4 pM | 4.4 pM
2 | H[Ac4c]QGTFTSDLSKYLESKRAREFVQWLLK([Gly-Ser-Glu-Gly-Ser-γGlu-γGlu-C18 diacid])T-NH2 | 600 pM | 200 pM | 4 pM | –
3 | H[Aib]QGTFTSDLSKYLDK([γGlu-γGlu-AEEA-AEEA-γGlu-C18 diacid])KRAQEFVQWLLNT-NH2 (N-terminus assumed; SMILES CC(C)C[C@H](NC(=O)[C@H](Cc1ccc(O)cc1)NC(=O)[C@H](CCCCN)NC(=O)[C@H](CO)NC(=O)[C@H](CC(C)C)NC(=O)[C@H](CC(=O)O)NC(=O)[C@H](CO)NC(=O)[C@@H](NC(=O)[C@H](Cc1ccccc1)NC(=O)[C@@H](NC(=O)CNC(=O)[C@H](CCC(N)=O)NC(=O)C(C)(C)NC(=O)[C@@H](N)Cc1c[nH]cn1)[C@@H](C)O)[C@@H](C)O)C(=O)N[C@@H](CC(=O)O)C(=O)N[C@@H](CCCCNC(=O)CC[C@H](NC(=O)CC[C@H](NC(=O)COCCOCCNC(=O)COCCOCCNC(=O)CC[C@H](NC(=O)CCCCCCCCCCCCCCCCC(=O)O)C(=O)O)C(=O)O)C(=O)O)C(=O)N[C@@H](CCCCN)C(=O)N[C@@H](CCCNC(=N)N)C(=O)N[C@@H](C)C(=O)N[C@@H](CCC(N)=O)C(=O)N[C@@H](CCC(=O)O)C(=O)N[C@@H](Cc1ccccc1)C(=O)N[C@H](C(=O)N[C@@H](CCC(N)=O)C(=O)N[C@@H](Cc1c[nH]c2ccccc12)C(=O)N[C@@H](CC(C)C)C(=O)N[C@@H](CC(C)C)C(=O)N[C@@H](CC(N)=O)C(=O)N[C@H](C(N)=O)[C@@H](C)O)C(C)C) | 1100 pM | 2400 pM | – | –
4 | H[Ac4c]QGTFTSDLSKYLESKRAREFVQWLLK([γGlu-γGlu-Ser-Glu-Ser-γGlu-γGlu-C18 diacid])T-NH2 | 600 pM | 300 pM | 5 pM | –
5 | H[Aib]QGTFTSDLSKYLESKRAREFVQWLLK([Gly-Ser-Glu-Gly-Ser-γGlu-γGlu-C18 diacid])T-NH2 | 5100 pM | 200 pM | – | 5.7 pM
6 | H[Aib]QGTFTSDLSKYLDLRRAQDFVQWLLK([γGlu-γGlu-Ser-Glu-Ser-γGlu-γGlu-C18 diacid])T-NH2 | – | 1900 pM | 7 pM | 11 pM
7 | H[Aib]HGTFTSDLSKYLEK([γGlu-AEEA-AEEA-γGlu-γGlu-C18 diacid])RRAREFVAWLLST-NH2 (N-terminus assumed; SMILES CC(C)C[C@H](NC(=O)[C@H](Cc1c[nH]c2ccccc12)NC(=O)[C@H](C)NC(=O)[C@@H](NC(=O)[C@H](Cc1ccccc1)NC(=O)[C@H](CCC(=O)O)NC(=O)[C@H](CCCNC(=N)N)NC(=O)[C@H](C)NC(=O)[C@H](CCCNC(=N)N)NC(=O)[C@H](CCCNC(=N)N)NC(=O)[C@H](CCCCNC(=O)CC[C@H](NC(=O)COCCOCCNC(=O)COCCOCCNC(=O)CC[C@H](NC(=O)CC[C@H](NC(=O)CCCCCCCCCCCCCCCCC(=O)O)C(=O)O)C(=O)O)C(=O)O)NC(=O)[C@H](CCC(=O)O)NC(=O)[C@H](CC(C)C)NC(=O)[C@H](Cc1ccc(O)cc1)NC(=O)[C@H](CCCCN)NC(=O)[C@H](CO)NC(=O)[C@H](CC(C)C)NC(=O)[C@H](CC(=O)O)NC(=O)[C@H](CO)NC(=O)[C@@H](NC(=O)[C@H](Cc1ccccc1)NC(=O)[C@@H](NC(=O)CNC(=O)[C@H](Cc1c[nH]cn1)NC(=O)C(C)(C)NC(=O)[C@@H](N)Cc1c[nH]cn1)[C@@H](C)O)[C@@H](C)O)C(C)C)C(=O)N[C@@H](CC(C)C)C(=O)N[C@@H](CO)C(=O)N[C@H](C(N)=O)[C@@H](C)O) | 1900 pM | 3900 pM | 6.8 pM | 32.7 pM
8 | H[Aib]QGTFTSDLSKYLDKKAAREFVAWLLNT-NH2 (not fully specified) | 53000 pM | 200 pM | – | –
9 | H[Aib]HGTFTSDLSKYLESRRAREFVQWLLK([γGlu-γGlu-AEEA-AEEA-γGlu-C18 diacid])T-NH2 (N-terminus assumed; SMILES CC(C)C[C@H](NC(=O)[C@H](Cc1ccc(O)cc1)NC(=O)[C@H](CCCCN)NC(=O)[C@H](CO)NC(=O)[C@H](CC(C)C)NC(=O)[C@H](CC(=O)O)NC(=O)[C@H](CO)NC(=O)[C@@H](NC(=O)[C@H](Cc1ccccc1)NC(=O)[C@@H](NC(=O)CNC(=O)[C@H](Cc1c[nH]cn1)NC(=O)C(C)(C)NC(=O)[C@@H](N)Cc1c[nH]cn1)[C@@H](C)O)[C@@H](C)O)C(=O)N[C@@H](CCC(=O)O)C(=O)N[C@@H](CO)C(=O)N[C@@H](CCCNC(=N)N)C(=O)N[C@@H](CCCNC(=N)N)C(=O)N[C@@H](C)C(=O)N[C@@H](CCCNC(=N)N)C(=O)N[C@@H](CCC(=O)O)C(=O)N[C@@H](Cc1ccccc1)C(=O)N[C@H](C(=O)N[C@@H](CCC(N)=O)C(=O)N[C@@H](Cc1c[nH]c2ccccc12)C(=O)N[C@@H](CC(C)C)C(=O)N[C@@H](CC(C)C)C(=O)N[C@@H](CCCCNC(=O)CC[C@H](NC(=O)CC[C@H](NC(=O)COCCOCCNC(=O)COCCOCCNC(=O)CC[C@H](NC(=O)CCCCCCCCCCCCCCCCC(=O)O)C(=O)O)C(=O)O)C(=O)O)C(=O)N[C@H](C(N)=O)[C@@H](C)O)C(C)C) | – | 600 pM | 3.6 pM | 14.6 pM
10 | H[Aib]QGTFTSDLSKYLESKRAREFVQWLLK([γGlu-γGlu-Ser-Glu-Ser-γGlu-γGlu-C18 diacid])T-NH2 | 1700 pM | 200 pM | – | 2.7 pM
11 | H[Ac4c]QGTFTSDLSKYLESRRAREFVQWLLK([γGlu-γGlu-AEEA-AEEA-γGlu-γGlu-C18 diacid])T-NH2 (N-terminus assumed; SMILES CC(C)C[C@H](NC(=O)[C@H](Cc1ccc(O)cc1)NC(=O)[C@H](CCCCN)NC(=O)[C@H](CO)NC(=O)[C@H](CC(C)C)NC(=O)[C@H](CC(=O)O)NC(=O)[C@H](CO)NC(=O)[C@@H](NC(=O)[C@H](Cc1ccccc1)NC(=O)[C@@H](NC(=O)CNC(=O)[C@H](CCC(N)=O)NC(=O)C1(NC(=O)[C@@H](N)Cc2c[nH]cn2)CCC1)[C@@H](C)O)[C@@H](C)O)C(=O)N[C@@H](CCC(=O)O)C(=O)N[C@@H](CO)C(=O)N[C@@H](CCCNC(=N)N)C(=O)N[C@@H](CCCNC(=N)N)C(=O)N[C@@H](C)C(=O)N[C@@H](CCCNC(=N)N)C(=O)N[C@@H](CCC(=O)O)C(=O)N[C@@H](Cc1ccccc1)C(=O)N[C@H](C(=O)N[C@@H](CCC(N)=O)C(=O)N[C@@H](Cc1c[nH]c2ccccc12)C(=O)N[C@@H](CC(C)C)C(=O)N[C@@H](CC(C)C)C(=O)N[C@@H](CCCCNC(=O)CC[C@H](NC(=O)CC[C@H](NC(=O)COCCOCCNC(=O)COCCOCCNC(=O)CC[C@H](NC(=O)CC[C@H](NC(=O)CCCCCCCCCCCCCCCCC(=O)O)C(=O)O)C(=O)O)C(=O)O)C(=O)O)C(=O)N[C@H](C(N)=O)[C@@H](C)O)C(C)C) | – | 300 pM | 11 pM | 6 pM
12 | H[Ac4c]QGTFTSDLSKYLESRRAREFVQWLLK([γGlu-γGlu-AEEA-AEEA-γGlu-C18 diacid])T-NH2 (N-terminus assumed; SMILES CC(C)C[C@H](NC(=O)[C@H](Cc1ccc(O)cc1)NC(=O)[C@H](CCCCN)NC(=O)[C@H](CO)NC(=O)[C@H](CC(C)C)NC(=O)[C@H](CC(=O)O)NC(=O)[C@H](CO)NC(=O)[C@@H](NC(=O)[C@H](Cc1ccccc1)NC(=O)[C@@H](NC(=O)CNC(=O)[C@H](CCC(N)=O)NC(=O)C1(NC(=O)[C@@H](N)Cc2c[nH]cn2)CCC1)[C@@H](C)O)[C@@H](C)O)C(=O)N[C@@H](CCC(=O)O)C(=O)N[C@@H](CO)C(=O)N[C@@H](CCCNC(=N)N)C(=O)N[C@@H](CCCNC(=N)N)C(=O)N[C@@H](C)C(=O)N[C@@H](CCCNC(=N)N)C(=O)N[C@@H](CCC(=O)O)C(=O)N[C@@H](Cc1ccccc1)C(=O)N[C@H](C(=O)N[C@@H](CCC(N)=O)C(=O)N[C@@H](Cc1c[nH]c2ccccc12)C(=O)N[C@@H](CC(C)C)C(=O)N[C@@H](CC(C)C)C(=O)N[C@@H](CCCCNC(=O)CC[C@H](NC(=O)CC[C@H](NC(=O)COCCOCCNC(=O)COCCOCCNC(=O)CC[C@H](NC(=O)CCCCCCCCCCCCCCCCC(=O)O)C(=O)O)C(=O)O)C(=O)O)C(=O)N[C@H](C(N)=O)[C@@H](C)O)C(C)C) | – | 300 pM | 10 pM | 3 pM
